Experimental data: paper PMC9352680, “A comprehensive thermodynamic model for RNA binding by the Saccharomyces cerevisiae Pumilio protein PUF4”
Positions count from the first letter of the chain named. Names may count otherwise.

B1: Id_ii_S2_P5E.3_K5.2_C5.2_[T-1C]_H5.2_A5.1_F5.1_T5.2_[T11C]_[A12T] (ssRNA)
RNA: UUUGAUUAAUAUGAUAUCGUUCUUUCUCCUAUAUUAUUACUUUCUUUCUCGAUAUCAUAUUAAUCUUU
B2: Id_ii_S2_P5E.3_K5.2_C5.2_[T-1G]_H5.2_A5.1_F5.1_T5.2_[T11G]_[A12C] (ssRNA)
RNA: B1 RNA with C29G, C40G, U41C
B3: Id_ii_S2_P5E.3_K5.2_C5.2_[T-1G]_H5.2_A5.1_F5.1_T5.2_[A12T] (ssRNA)
RNA: B1 RNA with C29G, C40U
B4: Id_ii_S2_P5E.3_K5.2_C5.2_[T-1A]_H5.2_A5.1_F5.1_T5.2_[T11C]_[A12T] (ssRNA)
RNA: B1 RNA with C29A
B5: Id_ii_S2_P5E.3_K5.2_C5.2_[C-2A]_[T-1C]_H5.2_A5.1_F5.1_T5.2_[T11C]_[A12T] (ssRNA)
RNA: B1 RNA with C28A
B6: Id_ii_S2_P5E.3_K5.2_C5.2_[C-2A]_[T-1A]_H5.2_A5.1_F5.1_T5.2_[T11C]_[A12G] (ssRNA)
RNA: B1 RNA with C28A, C29A, U41G
B7: Id_ii_S2_P5E.3_K5.2_C5.2_[C-2A]_[T-1C]_H5.2_A5.1_F5.1_T5.2_[T11A]_[A12T] (ssRNA)
RNA: B1 RNA with C28A, C40A
B8: Id_ii_S2_P5E.3_K5.2_C5.2_[C-2A]_H5.2_A5.1_F5.1_T5.2_[T11G]_[A12C] (ssRNA)
RNA: B1 RNA with C28A, C29U, C40G, U41C
B9: Id_ii_S2_P5E.3_K5.2_C5.2_[T-1C]_H5.2_A5.1_F5.1_T5.2_[T11A] (ssRNA)
RNA: B1 RNA with C40A, U41A
B10: Id_ii_S2_P5E.3_K5.2_C5.2_[C-2T]_H5.2_A5.1_F5.1_T5.2_[T11A]_[A12T] (ssRNA)
RNA: B1 RNA with C28U, C29U, C40A
B11: Id_ii_S2_P5E.3_K5.2_C5.2_[C-2T]_[T-1A]_H5.2_A5.1_F5.1_T5.2_[T11A]_[A12C] (ssRNA)
RNA: B1 RNA with C28U, C29A, C40A, U41C
B12: Id_ii_S2_P5E.3_K5.2_C5.2_[T-1C]_H5.2_A5.1_F5.1_T5.2_[T11A]_[A12T] (ssRNA)
RNA: B1 RNA with C40A
B13: Id_ii_S2_P5E.3_K5.2_C5.2_[C-2A]_H5.2_A5.1_F5.1_T5.2_[T11C]_[A12G] (ssRNA)
RNA: B1 RNA with C28A, C29U, U41G
B14: Id_ii_S2_P5E.3_K5.2_C5.2_[T-1G]_H5.2_A5.1_F5.1_T5.2_[T11A]_[A12C] (ssRNA)
RNA: B1 RNA with C29G, C40A, U41C
B15: Id_ii_S2_P5E.3_K5.2_C5.2_[T-1C]_H5.2_A5.1_F5.1_T5.2_[T11A]_[A12C] (ssRNA)
RNA: B1 RNA with C40A, U41C
B16: Id_ii_S2_P5E.3_K5.2_C5.2_[T-1C]_H5.2_A5.1_F5.1_T5.2_[A12T] (ssRNA)
RNA: B1 RNA with C40U
B17: Id_ii_S2_P5E.3_K5.2_C5.2_[C-2T]_H5.2_A5.1_F5.1_T5.2_[T11C]_[A12G] (ssRNA)
RNA: B1 RNA with C28U, C29U, U41G
B18: Id_ii_S2_P5E.3_K5.2_C5.2_[T-1A]_H5.2_A5.1_F5.1_T5.2_[T11C] (ssRNA)
RNA: B1 RNA with C29A, U41A
B19: Id_ii_S2_P5E.3_K5.2_C5.2_[C-2A]_[T-1C]_H5.2_A5.1_F5.1_T5.2_[A12T] (ssRNA)
RNA: B1 RNA with C28A, C40U
B20: Id_ii_S2_P5E.3_K5.2_C5.2_[C-2T]_H5.2_A5.1_F5.1_T5.2_[T11G]_[A12T] (ssRNA)
RNA: B1 RNA with C28U, C29U, C40G
B21: Id_ii_S2_P5E.3_K5.2_C5.2_[C-2A]_H5.2_A5.1_F5.1_T5.2_[T11C]_[A12T] (ssRNA)
RNA: B1 RNA with C28A, C29U
B22: Id_ii_S2_P5E.3_K5.2_C5.2_[C-2T]_[T-1A]_H5.2_A5.1_F5.1_T5.2_[T11A] (ssRNA)
RNA: B1 RNA with C28U, C29A, C40A, U41A
B23: Id_ii_S2_P5E.3_K5.2_C5.2_[T-1C]_H5.2_A5.1_F5.1_T5.2_[T11C]_[A12C] (ssRNA)
RNA: B1 RNA with U41C

What follows are binders tested against T1, PUF4 RNA-binding domain (Saccharomyces cerevisiae, UniProt P25339 537-888) (assay: Mg; RNA-MaP; 20 mM Na-HEPES pH 7.4, 30 mM KOAc, 0.75 mM MgCl2, 0.1% Tween-20, 5% glycerol, 0.1 mg/mL BSA, 2 mM DTT; 25 C; 0.0125-409.6 nM protein). Details: tags: N-His6-TEV cleaved; C-SNAP kept, Cy3B-labelled; label: tethered on chip by stalled RNA polymerase.
T1 sequence: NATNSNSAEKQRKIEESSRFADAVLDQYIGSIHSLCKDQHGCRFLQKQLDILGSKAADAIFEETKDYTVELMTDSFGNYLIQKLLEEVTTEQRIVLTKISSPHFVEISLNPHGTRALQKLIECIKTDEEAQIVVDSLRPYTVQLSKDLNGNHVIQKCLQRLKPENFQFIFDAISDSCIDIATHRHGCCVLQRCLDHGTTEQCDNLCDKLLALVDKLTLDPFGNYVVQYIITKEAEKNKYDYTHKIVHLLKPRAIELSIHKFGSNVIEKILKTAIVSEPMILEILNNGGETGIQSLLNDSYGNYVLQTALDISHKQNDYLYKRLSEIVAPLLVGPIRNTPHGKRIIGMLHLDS

Binder	Kd
B1	57.9 nM
B2	28.1 nM
B3	11.9 nM
B4	90.7 nM
B5	98.6 nM
B6	> 2300 nM
B7	207 nM
B8	762 nM
B9	151 nM
B10	374 nM
B11	9.27 nM
B12	138 nM
B13	229 nM
B14	15.5 nM
B15	108 nM
B16	79.4 nM
B17	152 nM
B18	166 nM
B19	174 nM
B20	442 nM
B21	97.6 nM
B22	22.6 nM
B23	87.3 nM
UCUCUUUGUAUAUUUCUCUU (ssRNA) [Ic_S1_P3E.1_K3.1_C3.1_H3.1_A3.1_F3.1_[A8T]_T3.1]	4.59 nM
UCUCUUUGUAUUCCUAUCUCUU (ssRNA) [Ib_S1_P5E.1_K5.1_C5.1_H5.1_A5.1_[A7C]_F5.1_[T8C]_T5.1]	17.5 nM
UCUCUUUGUCUUAUUAUCUCUU (ssRNA) [Ia_S1_P5E.1_K5.1_C5.1_H5.1_[A4C]_A5.1_F5.1_T5.1]	38.3 nM
UCUCUUUGUAUUUCUAUCUCUU (ssRNA) [Ib_S1_P5E.1_K5.1_C5.1_H5.1_A5.1_[A7T]_F5.1_[T8C]_T5.1]	6.46 nM
UCUCUUUGUAUUUAUAUCUCUU (ssRNA) [Ib_S1_P5E.1_K5.1_C5.1_H5.1_A5.1_[A7T]_F5.1_[T8A]_T5.1]	5.27 nM
UCUCUUUGUAUUCAUAUCUCUU (ssRNA) [Ib_S1_P5E.1_K5.1_C5.1_H5.1_A5.1_[A7C]_F5.1_[T8A]_T5.1]	14 nM
